Experimental data published in patent publication US20020081638.
Where “and” joins values, the source holds several entries; their conditions need not be identical. Equal entries are not always repeated.

What was measured:
[1] = target: N-terminus of rat macro-H2A peptide
[2] = target: wild-type N-terminus of human histone H3 peptide (aa 1-20)
[3] = target: N-terminus of human CENP-A peptide
[4] = target: mutant H3 (K9L) N-terminal peptide
[5] = target: free histones (mixture of H1, H3, H2B, H2A and H4; Boehringer Mannheim)

B1: GST-Suv39h1(82-412), murine (protein)
chain: CIRVLKQFHKDLERELVRRHRRSKPPRHLDPNLANYLVQKAKQRRALQRWEQELNAKRSHLGRITVENEVDLDGPPRSFVYINEYRVGEGITLNQVAVGCECQDCLLAPTGGCCPGASLHKFAYNDQGQVRLKAGQPIYECNSRCCCGYDCPNRVVQKGIRYDLCIFRTNDGRGWGVRTLEKIRKNSFVMEYVGEIITSEEAERRGQIYDRQGATYLFDLDYVEDVYTVDAAYYGNISHFVNHSCDPNLQVYNVFIDNLDERLPRIAFFATRTIWAGEELTFDYNMQVDPVDMESTRMDSNFGLAGLPGSPKKRVRIECKCGTTACRKYLF
[1]
  in vitro methylation of peptides, SDS-PAGE and fluorography: no signals were detected with the CENP-A or macroH2A peptides, or with insulin
Histone H4
  in vitro methylation of individual histones, fluorography: no signals are detected with H2A, H2B or H4
Histone H2A
  in vitro methylation of individual histones, fluorography: no signals are detected with H2A, H2B or H4
Histone H3
  in vitro methylation of individual histones, fluorography: H3 is specifically methylated by GST-Suv39h1(82-412)
[2]
  3H-incorporation of individual amino acids by microsequencing of the in vitro methylated peptide: The results confirmed selective transfer of methyl-label to lysine 9
  in vitro methylation of peptides, SDS-PAGE and fluorography: These in vitro assays revealed selective methylation of the wild-type H3 peptide
[3]
  in vitro methylation of peptides, SDS-PAGE and fluorography: no signals were detected with the CENP-A or macroH2A peptides, or with insulin
Insulin (Sigma)
  in vitro methylation of peptides, SDS-PAGE and fluorography: no signals were detected with the CENP-A or macroH2A peptides, or with insulin
Histone H1
  in vitro methylation of individual histones, fluorography: A weak signal is present if H1 was used as the sole substrate
Histone H2B
  in vitro methylation of individual histones, fluorography: no signals are detected with H2A, H2B or H4
[4]
  in vitro methylation of peptides, SDS-PAGE and fluorography: the mutated H3 (K9L) peptide was not a substrate
[5]
  in vitro HMTase assay, fluorography of 14C-methyl label: A purified GST-product comprising aa 82-412 maintained HMTase activity (although at a reduced level as compared to transfected SUV39H1)

B2: GST-Suv39h1(7-221), murine (protein)
chain: GCSVCCKSSWNQLQDLCRLAKLSCPALGVSKKNLYDFEVEYLCDYKKIREQEYYLVKWRGYPDSENTWEPRQNLKCIRVLKQFHKDLERELVRRHRRSKPPRHLDPNLANYLVQKAKQRRALQRWEQELNAKRSHLGRITVENEVDLDGPPRSFVYINEYRVGEGITLNQVAVGCECQDCLLAPTGGCCPGASLHKFAYNDQGQVRLKAGQPIYE
[5]
  in vitro HMTase assay, fluorography of 14C-methyl label: a purified GST-product comprising aa 7-221 proved negative, even at higher protein concentrations

B3: GST-CLR4(127-490), S. pombe (protein)
chain: KQSTALTTNDTSIILDDSLHTNSKKLGKTRNEVKEESQKRELVSNSIKEATSPKTSSILTKPRNPSKLDSYTHLSFYEKRELFRKKLREIEGPEVTLVNEVDDEPCPSLDFQFISQYRLTQGVIPPDPNFQSGCNCSSLGGCDLNNPSRCECLDDLDEPTHFAYDAQGRVRADTGAVIYECNSFCSCSMECPNRVVQRGRTLPLEIFKTKEKGWGVRSLRFAPAGTFITCYLGEVITSAEAAKRDKNYDDDGITYLFDLDMFDDASEYTVDAQNYGDVSRFFNHSCSPNIAIYSAVRNHGFRTIYDLAFFAIKDIQPLEELTFDYAGAKDFSPVQSQKSQQNRISKLRRQCKCGSANCRGWLFG
[5]
  in vitro HMTase assay with free histones, activity against recombinant SUV39H1 product: 3 fold and 5 fold

B4: (myc)3-SUV39H1 (aa 3-412), triple myc-tagged full-length human SUV39H1 (protein)
chain: ENLKGCSVCCKSSWNQLQDLCRLAKLSCPALGISKRNLYDFEVEYLCDYKKIREQEYYLVKWRGYPDSESTWEPRQNLKCVRILKQFHKDLERELLRRHHRSKTPRHLDPSLANYLVQKAKQRRALRRWEQELNAKRSHLGRITVENEVDLDGPPRAFVYINEYRVGEGITLNQVAVGCECQDCLWAPTGGCCPGASLHKFAYNDQGQVRLRAGLPIYECNSRCRCGYDCPNRVVQKGIRYDLCIFRTDDGRGWGVRTLEKIRKNSFVMEYVGEIITSEEAERRGQIYDRQGATYLFDLDYVEDVYTVDAAYYGNISHFVNHSCDPNLQVYNVFIDNLDERLPRIAFFATRTIRAGEELTFDYNMQVDPVDMESTRMDSNFGLAGLPGSPKKRVRIECKCGTESCRKYLF
Histone H3
  in vitro HMTase assay, fluorography of 14C-methyl label: indicating selective transfer of the methyl-label to H3

B5: (myc)3-Nchromo (aa 3-118), C-terminally truncated human SUV39H1 (protein)
chain: ENLKGCSVCCKSSWNQLQDLCRLAKLSCPALGISKRNLYDFEVEYLCDYKKIREQEYYLVKWRGYPDSESTWEPRQNLKCVRILKQFHKDLERELLRRHHRSKTPRHLDPSLANYL
[5]
  in vitro HMTase assay, fluorography of 14C-methyl label: no signals were detected with extracts from a HeLa cell line that expresses only the N-terminal third of SUV39H1 (aa 3-118)
